Assay results from patent US20240209061A1, “FUSION PROTEINS AND USES THEREOF” (Pfizer Inc., priority 2020, published 2024).

Columns and labels:
[1] = Viscosity (Anton Paar rheometer); type: physicochemical; settings: 20 mM histidine, 8.5% sucrose, pH 5.8
Description: The viscosity of CD80-Fc fusion proteins was assessed at various concentrations. Lower viscosity is desired for subcutaneous administration, and providing optimal syringeability and minimal pain to patients. Viscosity was measured using an Anton Paar rheometer and a CP-25 measuring system at 150 rpm. The sample comprised CD80-Fc fusion proteins in 20 mM histidine and 8.5% sucrose at pH 5.8.

[2] = tested on: peripheral blood mononuclear cells (PBMC); assay: RESTORE cytokine release assay in absence of TCR stimulation; type: cell-based, human; set-up: IFNγ: unit not given beside the values
Method in brief: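 Fresh healthy-donor PBMC were precultured 48 h at […] in RPMI1640 with 10% autologous plasma, then resuspended at 10^6/ml with soluble variant CD80-Fc. After 48 h without TCR stimulation, supernatant IL-2 and IFNγ were measured by ELISA; values are means of 3 technical replicates per donor.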

[3] = tested on: CT26 murine colorectal carcinoma tumor cells; assay: CT26 murine colorectal carcinoma model; type: in vivo, mouse; settings: for Day 10 tumor volume: Days 0 and 3; for % tumor growth inhibition: Day 10
Description: CT26 murine colorectal carcinoma tumor cells (1×10^6) were subcutaneously implanted in the hind flank of female Balb/c mice. When tumors reached ˜100 mm3 (Day 8), mice were randomized. PBS vehicle control or variant CD80-Fc fusion proteins were dosed intravenously at 0.1 and 1.0 mg/kg on Days 0 and 3. Tumor volume was determined by caliper measurements obtained in 2 dimensions and calculated as width^2×length/2. Error bars are depicted as ±SEM.
IFNγ ELIspot was used to measure tumor-reactive T cells in the spleen in mice treated with CD80-Fc fusion proteins at a 1 mg/kg dose.
Cytotoxic CD8^+ T cells are responsible for killing cancer cells and the measurement of CD8^+ T cells that have infiltrated tumors commonly correlates with efficacy for immune-oncology therapies. For all in vivo studies, tumors were collected ˜1 week after the first dose and dissociated by mincing, followed by incubation in an enzymatic digestion cocktail and homogenization. The resulting cell suspension was filtered and washed, and single cells were stained with antibodies to CD45, CD8, and a viability dye to detect tumor-infiltrating lymphocytes (TILs) by flow cytometry. Data were acquired on a BD LSRFortessa flow cytometer or a Cytek Aurora spectral flow cytometer. Table 31 and FIG. 18 show the amount of tumor-infiltrating CD8+ T cells expressed as a percentage of total immune cells (CD45+). Each value is the average of n=4 mice per group. Treatment with all variant CD80-Fc fusion proteins led to increase in CD8+ TILs in various tumor models.

[4] = Pharmacokinetics in cynomolgus monkeys; type: in vivo; settings: cynomolgus monkey
Description: PK of variant CD80-Fc fusion proteins was assessed in non-human primates. […] A ligand binding assay using the Gyrolab Immunoassay platform was used to quantitate CD80-Fc molecules in cynomolgus monkey serum following dose administration. CD80-Fc constructs were captured onto the Gyrolab Bioaffy CD using a biotinylated monoclonal anti-human CD80 antibody (Thermo Fisher Cat #13-0809-82). Bound CD80-Fc constructs were detected using a mouse anti-human Fc antibody (SouthernBiotech Cat #9040-01) that was labeled with Alexa Fluor 647. Sample concentrations were determined by interpolation from a calibration curve that were fit using a 5-parameter logistic regression model. The range of quantitation of the assay was 100-15000 ng/ml in 100% serum. […] AUC (Area Under the Curve); Cmax (Maximum Concentration observed); Tmax (Time of Maximum concentration observed)

[5] = Pharmacokinetics in huFcRn transgenic mice; settings: 0.1 mg/kg IV
Description: PK of CD80-Fc fusion proteins was also assessed in transgenic mice expressing the human neonatal Fc receptor (huFcRn) a-chain transgene under the control of its natural human promoter. Female mice were dosed intravenously with CD80-Fc fusion proteins at 0.1 mg/kg, and blood was collected at the timepoints indicated on the graph. Levels of CD80-Fc in mouse plasma were measured as described above.

Substance: CD80-K89Q-D90Q-E23C-A26C-Fc: disulfide stabilized variant CD80-Fc fusion protein (K89Q, D90Q, E23C, A26C)
- Viscosity ([1]; 107.0 mg/ml): 9.878 cP
- Viscosity ([1]; 148.0 mg/ml): 30.16 cP
- IFNγ ([2]; Table 20, D222, 1 μg/ml): 7.3
- IFNγ ([2]; Table 20, D222, 10 μg/ml): 4.3
- IL-2 ([2]; Table 20, D222, 10 μg/ml): 6.7
- IFNγ ([2]; Table 20, D281, 1 μg/ml): 3.0
- IL-2 ([2]; Table 20, D281, 1 μg/ml): 2.7
- IFNγ ([2]; Table 20, D281, 10 μg/ml): 3.7
- IL-2 ([2]; Table 20, D281, 10 μg/ml): 5.7
- IFNγ ([2]; Table 20, D462, 1 μg/ml): 7.0
- IL-2 ([2]; Table 20, D462, 1 μg/ml): 2.0
- IFNγ ([2]; Table 20, D462, 10 μg/ml): 7.3
- IL-2 ([2]; Table 20, D462, 10 μg/ml): 3.0
- IFNγ ([2]; Table 20, D547, 1 μg/ml): 4.3
- IL-2 ([2]; Table 20, D547, 1 μg/ml): 13.3
- IFNγ ([2]; Table 20, D547, 10 μg/ml): 3.0
- IL-2 ([2]; Table 21, D132, 1.9 μg/ml): 0.0
- IL-2 ([2]; Table 21, D132, 5.6 μg/ml): 0.0
- IL-2 ([2]; Table 21, D132, 16.7 μg/ml): 0.3
- IL-2 ([2]; Table 21, D149, 1.9 μg/ml): 0.0
- IL-2 ([2]; Table 21, D149, 5.6 μg/ml): 0.0
- IL-2 ([2]; Table 21, D149, 16.7 μg/ml): 0.0
- IL-2 ([2]; Table 21, D149, 50 μg/ml): 0.0
- IL-2 ([2]; Table 21, D379, 1.9 μg/ml): 29.0
- IL-2 ([2]; Table 21, D379, 5.6 μg/ml): 2.3
- IL-2 ([2]; Table 21, D379, 16.7 μg/ml): 0.0
- IL-2 ([2]; Table 21, D379, 50 μg/ml): 0.0
- IL-2 ([2]; Table 21, D399, 1.9 μg/ml): 0.0
- IL-2 ([2]; Table 21, D399, 5.6 μg/ml): 2.0
- IL-2 ([2]; Table 21, D399, 16.7 μg/ml): 0.0
- IL-2 ([2]; Table 21, D399, 50 μg/ml): 0.0
- IL-2 ([2]; Table 21, D417, 1.9 μg/ml): 3.0
- IL-2 ([2]; Table 21, D417, 5.6 μg/ml): 0.0
- IL-2 ([2]; Table 21, D417, 16.7 μg/ml): 0.3
- IL-2 ([2]; Table 21, D417, 50 μg/ml): 0.0
- IL-2 ([2]; Table 21, D518, 1.9 μg/ml): 0.0
- IL-2 ([2]; Table 21, D518, 5.6 μg/ml): 2.0
- IL-2 ([2]; Table 21, D518, 16.7 μg/ml): 1.7
- IL-2 ([2]; Table 21, D518, 50 μg/ml): 2.7
- IFNγ ([2]; Table 22, D132, 1.9 μg/ml): 0.0
- IFNγ ([2]; Table 22, D132, 5.6 μg/ml): 78.0
- IFNγ ([2]; Table 22, D132, 16.7 μg/ml): 0.0
- IFNγ ([2]; Table 22, D132, 50 μg/ml): 0.0
- IFNγ ([2]; Table 22, D149, 1.9 μg/ml): 0.0
- IFNγ ([2]; Table 22, D149, 5.6 μg/ml): 0.0
- IFNγ ([2]; Table 22, D149, 16.7 μg/ml): 0.0
- IFNγ ([2]; Table 22, D149, 50 μg/ml): 41.3
- IFNγ ([2]; Table 22, D379, 1.9 μg/ml): 0.0
- IFNγ ([2]; Table 22, D379, 5.6 μg/ml): 0.0
- IFNγ ([2]; Table 22, D379, 16.7 μg/ml): 0.0
- IFNγ ([2]; Table 22, D379, 50 μg/ml): 0.0
- IFNγ ([2]; Table 22, D399, 1.9 μg/ml): 0.0
- IFNγ ([2]; Table 22, D399, 5.6 μg/ml): 0.0
- IFNγ ([2]; Table 22, D399, 16.7 μg/ml): 0.0
- IFNγ ([2]; Table 22, D399, 50 μg/ml): 4.3
- IFNγ ([2]; Table 22, D417, 1.9 μg/ml): 0.0
- IFNγ ([2]; Table 22, D417, 5.6 μg/ml): 0.0
- IFNγ ([2]; Table 22, D417, 16.7 μg/ml): 0.0
- IFNγ ([2]; Table 22, D417, 50 μg/ml): 0.0
- IFNγ ([2]; Table 22, D518, 1.9 μg/ml): 0.0
- IFNγ ([2]; Table 22, D518, 5.6 μg/ml): 0.0
- IFNγ ([2]; Table 22, D518, 16.7 μg/ml): 20.7
- IFNγ ([2]; Table 22, D518, 50 μg/ml): 0.0
- Number of tumor regressions ([3]; 0.1 mg/kg): 5/10
- Day 10 tumor volume ([3]; 0.1 mg/kg IV): 289.9 mm^3
- % tumor growth inhibition ([3]; 0.1 mg/kg): 75.80%
- Number of tumor regressions ([3]; 1 mg/kg): 6/10
- Day 10 tumor volume ([3]; 1 mg/kg IV): 305.3 mm^3
- % tumor growth inhibition ([3]; 1 mg/kg): 74.51%
- # IFNγ-producing spots (tumor-reactive T cells in spleen) ([3]; 1 mg/kg, average of n = 4 mice): 547.375
- AUC ([4]; 3 mpk IV): 3680 µg·h/mL
- AUC fold-increase over WT ([4]; 3 mpk IV): 1.48
- Cmax ([4]; 3 mpk IV): 107 µg/mL
- Tmax ([4]; 3 mpk IV): 4.98 min
- AUC ([4]; 15 mpk IV): 27800 µg·h/mL
- AUC fold-increase over WT ([4]; 15 mpk IV): 2.00
- Cmax ([4]; 15 mpk IV): 627 µg/mL
- Tmax ([4]; 15 mpk IV): 4.98 min
- AUC ([4]; 50 mpk IV): 72200 µg·h/mL
- AUC fold-increase over WT ([4]; 50 mpk IV): 1.95
- Cmax ([4]; 50 mpk IV): 1790 µg/mL
- Tmax ([4]; 50 mpk IV): 4.98 min
- AUC [5]: 182 µg·h/mL
- CL [5]: 8.6 mL/day/kg
- T1/2 [5]: 211 h
- Vdss [5]: 109 mL/kg
- Cmax ([5]; average of 3 animals): 2.2 µg/mL
